Reference: the nanobody polyreactivity screen of Harvey et al. (2022)

Assay: yeast display, Sf9 membrane polyspecificity reagent, FACS + sequencing; frameworks hold sequencing errors
Procedure, shortened: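 Nanobodies came from a synthetic yeast display library in Saccharomyces cerevisiae BJ5465, induced with galactose for 36–48 hours and stained for 1 hour at 4 °C with 10% biotinylated, detergent-solubilized Sf9 membrane reagent. Cells were enriched on streptavidin microbeads and then FACS-sorted, with low and high (top ~1%) gates set on anti-HA fluorescence for expression and streptavidin fluorescence for reagent binding. Each polyreactivity label reflects the gate a clone came from. Genes were amplified by colony PCR, sequenced by MiSeq 2 × 250 and filtered by CDR length.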

Sequence | polyreactivity (PSR sort gate)
QVQHVESGGGLVQAGGSLRLSCAASGRTFPINAMGWYRPAPGKERELVARISRTSGSTYYADSVKGRFTISRDNAKNTVYLQMNSLKPEDTAVYYCAAVRDKYFRASYGYWGQGTQVTVSS | high polyreactivity
QVQHVESGGGLVQAGGSLRLSCAASGRTFSWYVMGWYRQSPGKERELVAAISWNGGRTYYADSVKGRFTISRDNAKNTVYLQMNSLKPEDTAVYYCAAKSYHGYPFDYWGQGTQVTVSS | high polyreactivity
QVQHVESGGGLVQAGGSLRLSCAASGRTFVLYTMGWYRQAPGKERELVAAISGSGGRTYYADSVKGRFTISRDNAKNTVYLQMNSLKPEDTAVYYCAAYGQGLPLYGYWGQGTQVTVSS | high polyreactivity
QVQHVESGGGLVQAGGSLRLSCAASGRTFVYYVMGWYRQAPGKESELVAAITGSGDSTYYADSVKGRFTISRDNAKNNVYLQMNSLKPEDTAVYYCAARRGTRYYDFGYYYWGQGTKVTVSS | high polyreactivity
QVQHVESGGGLVQAGGSLRLSCAASGRTFYKNTMGWYRQAPGKERELVAGISQRGGRTYYADSVKGRFTISRDNAKNTVYLQMNSLEPEDTAVYYCNKRRAAGGFPFDYWGQGTQVTVSS | high polyreactivity
QVQHVESGGGLVQAGGSLRLSCAASGRTFYRNAMGWSRQAPGKELELVAAITRSGGSTYYADSVKGRFTTSRDNAKNTVYLQMNSLQPEDTAVYYCARRLYPYRPTPYDYWGQGTQVTVSS | low polyreactivity
QVQHVESGGGLVQAGGSLRLSCAASGRTFYYNDMGWSRQAPGKERELVAAISWSGVSTSYADSVKGRFTISRDNAKNTVYLQMNSLKPEDTAVYYCAADNDGWYFHITEYDYWGQGTQVTVSS | low polyreactivity
QVQHVESGGGLVQAGGSLRLSCAASGRTSYTNAMGWSRPAPGKERELVAAINYSGGSTYYADSVKGRYTISRDNAKNTVYLQMNSLKPEDTAVYYCAAERYYWYTEMGYWGQGTQVTVSS | high polyreactivity
QVQHVESGGGLVQAGGSLRLSCAASGRTVASYAMGWYRPAPGKERELVAVITRGGRTYYADSVKGRFTISRDNAKNTVYLQLNSLKPEDTAVYYCKAAYYSSSYLEDSWGHGTQVTVSS | high polyreactivity
QVQHVESGGGLVQAGGSLRLSCAASGSIFAHYTMGWYRQAPGKERELVAVISRSGARTYYADSVKGRFTISRDNAKNTVYLQMNSLKPEDTAVYYCAADRNLEEDYWGLGTQVTVSS | low polyreactivity
QVQHVESGGGLVQAGGSLRLSCAASGSIFASYAMGWYRLAAGKERELVAAISRRAVLTYYADSVKGRFTISRDNPKNTVYLQMNSLKPEDTAVYFCNARGYSGYQRYGYNYWGQGTQVTVSS | high polyreactivity
QVQHVESGGGLVQAGGSLRLSCAASGSIFIPNAMGWYRQAPGKERELVAAITSGGRTYYADSVKGRFTISRDNAKNTVYLQMNSLKPEDTAVYYCAARSGYRYVESEYWGQGTQVTVSS | high polyreactivity
QVQHVESGGGLVQAGGSLRLSCAASGSIFLPYAMGWYRQAPGKQRELVAAISDRGSTYYADSVKGRFTISRDNAQNTVYLHMNSVKAEDTAVYYCAKVYLLFVGALQFDYWGQGTQVTVSS | low polyreactivity
QVQHVESGGGLVQAGGSLRLSCAASGSIFNRYAMGWYRQAPGKERELVAAITYNGGSTYYADSVKGRFTISRDNAKNTVYLQMNSLKPEDTAVYYCAAERYNGYDYWGQGTQVTVSS | high polyreactivity
QVQHVESGGGLVQAGGSLRLSCAASGSIFVNNAMGWYRQAPGKERELVAAIRRSGGNTYYADSVKGRFTISRDNAKNTVYLQMNSLKPEDTAVYYCNVVRRADSIRAKSRDYWGQGTQVTVSS | high polyreactivity
QVQHVESGGGLVQAGGSLRLSCAASGSIFYVNAMGWYRQAPGKERELVAAITRDGSTNYADSVKGRFTISRDNAKNTVYLQMNSLKPEDTAVYYCAADFVRYIDREDYWGQGTQVTVSS | low polyreactivity
QVQHVESGGGLVQAGGSLRLSCAASGSIFYVYAMGWYRQAPGKERELVASINKSGGSTYYADSVKGRFTISRDNAKNTVYLQMNSLKPEDTAVYYCAARTGWPRVGFQYPAHVGFDYWGQGTQVTVSS | low polyreactivity
QVQHVESGGGLVQAGGSLRLSCAASGSIFYYYTMGWYRQAPGKERELVAAITSGGSTYYADSVKGRFTISRDNAKNTVYIQMNSLKPDDTAVYYCAAEYHSFLWDMDYWGQGTQVTVST | high polyreactivity
QVQHVESGGGLVQAGGSLRLSCAASGSIISYYAMGWSRQQPGKERELVAAITANGGSTSYADSVKGRFTISRDNAKNTVYLQMNSLKPEVTAVYYCAKESDYPYYVSTKGDYDYWGQGTQVTVSS | low polyreactivity
QVQHVESGGGLVQAGGSLRLSCAASGSTFAFNTMGWYRQSPGKEWELVAGISSNGGRTYYADSVNGRFTISRDNAKNTVYLQMNSLKPEDTAVYYCNRASVFHYRWYYYWGQGTQVTVSS | high polyreactivity
QVQHVESGGGLVQAGGSLRLSCAASGSTFAVYTMGWYRQAPGKERELSTSYADSVKGRFTISRDNAKNTVYLQMNSLKPEDTAVYYCNRDFYEFDSNSYRFDYWGQGTQVTVSS | low polyreactivity
QVQHVESGGGLVQAGGSLRLSCAASGSTFDDNTMGWYRQATGKERELVAAITRSGGSTYYADSVKGRFTISRDNAKNTVYLQMNSLKPEDTAVYYCATYPYSPYYYVYVEPYDYWGQGTQVTVSS | low polyreactivity

Sequence | polyreactivity (PSR sort gate)
QVQHVESGGGLVQAGGSLRLSCAASGSTFDSNDMGWYRQAPGKEWELVPGITWSGASTYYADSVKGRFTISRDNAKNTVYLQMNSLKPEDTAVYYCAAGPWGTGHYVQGPVYYYRYDYWGQGTQVTVSS | low polyreactivity
QVQHVESGGGLVQAGGSLRLSCAASGSTFDVYALGWDRQAPGKERELVAAISESGSSTYYADSVKGRFTISRDNAKHTVYLQMNSLKPEDTAVYSCNALYYDWHPEYQVIFSYFYYWGQGTQVTVSS | low polyreactivity
QVQHVESGGGLVQAGGSLRLSCAASGSTFNSYDKGSYRQAPGKERELVAAISSSAASTYYADSVKGRFTISRDNAKKTGYLQMNSLKPEDTAVYYCAAYVYYTYPSCTVYSVSYIYDYWAQGTQVTVSS | low polyreactivity
QVQHVESGGGLVQAGGSLRLSCAASGSTFSANAMGWYRQAPGKERELVAVIRRGGSTTYADSVKGRFTISRDNAKNTVYLQMNSLKPEDTAVYYCNARVTLGRPLFTYLVRYEYWGQGTQVTVSS | high polyreactivity
QVQHVESGGGLVQAGGSLRLSCAASGSTFSKYAMGWYRLAPGKERELVAAINYGGTSTYYADSVKGRFTISRDNAKNTVYLQMNSLKPEDTAVYYCAVIYRRLYTGGQNPYDYWGQGTQVTVSS | high polyreactivity
QVQHVESGGGLVQAGGSLRLSCAASGSTFWRYAMGWYRQAPGKERELVAAISTSGGSTRYADSVKGRFTISRDNAKNTVYFQMKSLKPEDTEVYYCADRSVSSTSYGYWGQGTQVTVSS | high polyreactivity
QVQHVESGGGLVQAGGSLRLSCAASGSTFYIYAMGWYRQAPGKERELVATITDGGSTNFADSVKGRFTISRDNAKNTVYLQMNSLKPEDTAVYYCNANVWTGYDYWGLGTQVTVSS | low polyreactivity
QVQHVESGGGLVQAGGSLRLSCAASGSTFYLYAMGWYRQAPGTERELLAAITYSGDRTRYADSVKGRFTISRDNAKNTVYLQMNSLKPEDTAVYYCAAPYVGARNAYRMCYWGQGTQVTVSS | high polyreactivity
QVQHVESGGGLVQAGGSLRLSCAASGSTISNNAMGWYRQAPGKERELVAGINSSGGRTYYADSVKGRFTISRDNAKNTVYLQMNSLKPEDTAVYYCNADNFRRYGYWGQGTQVTVSS | high polyreactivity
QVQHVESGGGLVQAGGSLRLSCAASGSTSDTNVMGWYRQDPGKERELVAAISYDDDRTYYADSVKGRFTISSDNAKNTVYLQMNSLKPEDTAVYYCATADDYPGDDYLEGGYWGQGTQVTVSS | low polyreactivity
QVQHVESGGGLVQAGGSLRLSCAASGSTYGYYAMGWYRQAPGKERELVAAITSGGTTNYADSVKGRFTISRDNAKNTVYLQMNSLKPEDTAVYYCNAVGTFVRFWTDGRDGVTYDYWGQGTKVTVSS | low polyreactivity
QVQHVESGGGLVQAGGSLRLSCAASGTTFVLYAMGWYIQAPGKERELVAAITWSGGITYYADSVKGRFTISRDNAKNTVYLQMNSLKPEDTAVYYCNAEQKQYEKSYDYWGQGSQVTVSS | low polyreactivity
QVQHVESGGGLVQAGGSLRLSCAASGYTFRSNTMGWYRQAPGKERELVAAISGRGSSTYYADSVKGRFTISRDNAKNTVYLQMNSLKPEDTAVYYCAAQSKYYQYYSWGQGTQVTVSS | high polyreactivity
QVQHVESGGGLVQAGGSLRLSCAASGYTFYFYAMGWYRQAPGKERELVAAITGGGTTSYADSVKGRFTISRDNAKNTVYLQMNSLKPEDTAVYYCNVLFADKSDYWGPGTQVTVSS | low polyreactivity
QVQHVESGGGLVQAGGSLRLSCAASVRTLYYYAMGWYRQAPGKERELVAAISGGGRTYYADSVKGRFTISRDNAKNTVYLQMNSLKPEDTAVYYCASRYRKSGLDNYWGQGTQVTVSS | high polyreactivity
QVQHVESGGGLVQAGGSLRLSCAATGRIFKYYARGWYTQAPGKERELVAAISSTGGRTYYADSVKGRFTNSRDNAKNTVYLQMNSLKPEDTAVFSCAADYAWGDPGRARFGYWGQGTQVTVSS | high polyreactivity
QVQHVESGGGLVQAGGSLRLSCAAYGSIFVYYAMGWYRKAPGKERDLFAAISSSGDTTYYADSVKGRYTISRDNAKNTVYLQMNSLKPEDTAVYYCAARVRVYRHASNYYWGQCTQVTVSS | high polyreactivity
QVQHVESGGGLVQAGGSLRLSCASSGRTFYEYAMGWYRQAPGKERELVAGITSGGSTNYADSVKGRFTISRDNAKNTVYLQMNSLKPEDTAVYYCAASYWGYEYDYWGQGTQVTVSS | low polyreactivity
QVQHVESGGGLVQAGGSLRLSCDASGRIFAKYAMGWYRQAHGKERELVAGISWGGGSTYYADSVKGRFTISRDNAKNTVYLQMNSLKPEDTAVYYCAARIPKQRDVRGSGMNYWGQGTQVTVSS | high polyreactivity
QVQHVESGGGLVQAGGSLRLSCGASGITLYGYAMGWYRQAPGKEREFVAAISRSGDRTYYADSVKGRFTISRDNAKNTVYLQMNSLKPEDTAVYYCNAWRYDYWGQGTQVTVSS | high polyreactivity
QVQHVESGGGLVQAGGSLRLSGAASGSTFPTIAMGWNRQAPGKEREWVADITIRAGGTSYADSVKGRFTISRDNAKNSVYLQMNSLKPQDTAVFYCARSKSSELKRLLYDSWGEGTQVTVSS | low polyreactivity
